Our source for the % relative activity values is patent US20120172295A1.

This experiment concerns the target glucagon receptor (UniProt P47871). In words: cell-based or functional assay.

Chain of glucagon receptor (P47871 26-477 limits assumed): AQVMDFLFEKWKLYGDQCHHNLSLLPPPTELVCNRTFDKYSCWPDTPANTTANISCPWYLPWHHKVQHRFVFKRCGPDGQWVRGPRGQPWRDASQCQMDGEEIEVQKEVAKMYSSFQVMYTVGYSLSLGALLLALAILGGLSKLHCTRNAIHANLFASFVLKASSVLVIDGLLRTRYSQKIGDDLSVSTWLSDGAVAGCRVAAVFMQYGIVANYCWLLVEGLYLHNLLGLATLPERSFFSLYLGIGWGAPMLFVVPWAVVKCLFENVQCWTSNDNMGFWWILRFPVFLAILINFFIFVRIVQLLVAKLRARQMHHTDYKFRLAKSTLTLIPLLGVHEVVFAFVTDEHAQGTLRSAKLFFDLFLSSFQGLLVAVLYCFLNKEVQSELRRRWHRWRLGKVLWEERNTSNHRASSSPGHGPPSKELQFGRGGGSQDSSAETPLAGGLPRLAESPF

Liraglutide (peptide) yielded a % relative activity of 0.04%.
